Entries after “also recorded” stand apart in the source; their conditions may differ.
Legend:
[1] = tested on: Ba/F3-P210 cells; experiment: 7-AAD and Annexin V staining of protein-treated Ba/F3-P210 cells; assay type: cell-based, mouse; conditions: proteins 30 μM, imatinib 2.5 μM; 48 hours post treatment
Procedure: (§1) 0.5 μL of 1 mM 7-AAD (Invitrogen) was added to each sample, followed by a 45 minute incubation on ice. […] Analysis was performed using the FACS Canto-II (BD BioSciences, University of Utah Core Facility) with FACS Diva software. 7-AAD and APC were excited at 488 and 635 nm wavelengths, and emissions were detected at 660 nm. Percentage of apoptosis/necrosis was calculated by the percentage of cells that stained positive for 7-AAD and/or APC. Independent treatments were tested three times (n=3).

[2] = tested on: Ba/F3 cells expressing BCR-ABL1E255V; experiment: Colony forming assay of Ba/F3 BCR-ABL1 E255V cells; assay type: cell-based, mouse; conditions: for colony formation, in words: CCmut3 gene delivery (transfection; b502 lentiviral infection) vs EV; for reduction in CFCs / colony forming ability: CCmut3 vs EV
Procedure: (§2) Following selection of transfected cells by cell sorting, viable cells were enumerated and seeded into methylcellulose as described previously (Dixon, A. S., et al. (2011) J. Biol. Chem. 286, 27751-27760). Briefly, mCherry-positive Ba/F3 cells were re-suspended in IMDM with 2% FBS (Stem Cell Technologies) at a concentration of 10,000 cells/mL. Three hundred microliters of this dilution was added to 3 mL of Methocult media (M3434—Ba/F3 p210 wild-type and mutant lines or M3234—Ba/F3 parental, Stem Cell Technologies). Approximately 1100 cells, or 1.2 mL, were seeded per dish in duplicate for each transfection. Colonies were counted 7 days later in an area of […] per dish.
(§3) Following selection of transfected cells by cell sorting, methylcellulose colony assays were performed by plating in 0.9% methylcellulose (Stem Cell Technologies; M3234 for Ba/F3 BCR-ABL1 native and mutant lines; M3434 for Ba/F3 parental cells; H4230 for CML patient samples). mCherry-positive Ba/F3 cells (1.1×10^3 cells/plate) or GFP-positive primary CML CD34+ cells (1×10^3 cells/plate) were seeded per dish in duplicate. In the case of CML patient samples, cells were plated in the presence of 1× StemSpan CC100 cytokine cocktail (StemCell Technologies). All cells were plated with or without the indicated TKI in three or more independent experiments. Plates were incubated at 37° C. in a 5% CO2 humidified incubator. Colonies were counted 7-14 days later in an area of 50 μm2 per dish using an inverted microscope.

[3] = tested on: Ba/F3 cells expressing BCR-ABL1E255V/T315I; experiment: Colony forming assay of Ba/F3 BCR-ABL1 E255V/T315I cells; assay type: cell-based, mouse; conditions: for colony formation, in words: CCmut3 gene delivery (transfection; b502 lentiviral infection) vs EV
Procedure: as §2, §3

[4] = target: T1, mCherry-tagged Bcr-Abl (Homo sapiens, UniProt P00519+P11274); experiment: Colocalization analysis in Cos-7 cells; assay type: cell-based; conditions: EGFP-tagged CC^mut3 co-transfected with mCherry-tagged Bcr-Abl
T1 construct: expressed in transfected cells; host or cells: Cos-7
T1 sequence (P11274 1-72 limits assumed): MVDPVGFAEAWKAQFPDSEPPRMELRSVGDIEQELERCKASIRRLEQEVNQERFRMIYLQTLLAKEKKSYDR
Procedure: Next, the ability of CC^mut3 to bind to BCR-ABL in live cells was analyzed (FIG. 8B). Colocalization analysis was performed by co-transfecting mCherry-tagged Bcr-Abl and EGFP-tagged CC^mut3 into Cos-7 cells.

[5] = tested on: K562 cells; experiment: 7-AAD and Annexin V staining of protein-treated K562 cells; assay type: cell-based, human; conditions: proteins 30 μM, imatinib 2.5 μM; 48 and 72 hours after treatment
Procedure: as §1

[6] = tested on: Ba/F3-P210 cells; experiment: Viability of transfected Ba/F3-p210 cells (trypan blue exclusion); assay type: cell-based, mouse; conditions: 72 h following transfection, vs mCherry control, n=1
Procedure: Two days following cell passaging, 3.0×10^6 cells were collected by centrifugation at 750×g for 10 min for each transfection group. Following collection, 4 μg DNA was transfected into cells according to the Cell Line Nucleofector® Kit V protocol (program X-001) using the Amaxa Nuelcofector II. Following nucleofection, the DNA/cell mixture was added to 500 μL plain RPMI and incubated for 20 min. After incubation, the 500 μL cell/DNA/RPMI mixture was added to complete RPMI 1640 media and allowed to incubate at 37° C. for 72 h until analysis.
Forty-eight or 72 h following transfection, 100 μL of treated K562 or Ba/F3-p210 cells was mixed with 100 μL trypan blue solution (Life Technologies). The numbers of viable cells (those impermeable to the trypan blue dye) from four different quadrants in an INCYTO™ C-CHIP™ Neubauer hemacytometer (VWR International, Radnor, Pa., USA) were counted using a standard light microscope. Quadrant counts were then averaged to obtain the number of viable cells per mL. For experiments using the Helix2mut3 construct, counts were performed on one aliquot per transfection (n=3 in replicate). In experiments involving the CappedHelix2mut3 construct, counts were performed three times using separate 100 pt aliquots from one transfection (n=1 in triplicate).

[7] = tested on: parental Ba/F3 cells; experiment: Annexin V/7-AAD apoptosis assay in transfected parental Ba/F3 cells; assay type: cell-based, mouse; conditions: 72 h, CCmut3 vs EV
Procedure: (§4) For analysis of apoptosis and cell death, cells were pelleted and resuspended in Annexin V-binding buffer (BD Biosciences), stained with anti-Annexin V-APC (BD Biosciences or Life Technologies) and 7-AAD (BD Biosciences or Life Technologies) and analyzed on a BD FACSCanto flow cytometer. In addition to the APC and 7-AAD channels, GFP- and mCherry-positive cells were also recorded.
as §4, with “apoptosis and necrotic cell death,” for “apoptosis and cell death,”, “anti-Annexin V-APC and 7-AAD” for “anti-Annexin V-APC (BD Biosciences or Life Technologies) and 7-AAD”

[8] = tested on: K562 cells; experiment: Cell proliferation (trypan blue) of protein-treated K562 cells; assay type: cell-based, human; conditions: proteins 30 μM or imatinib
Procedure: Independent treatments were tested three times (n=3).

[9] = tested on: CD34+ cells from newly diagnosed CML patients; experiment: Colony forming assay of CD34+ cells from newly diagnosed CML patients; assay type: cell-based, human; conditions: for colony formation, in words: day 14 CFU-GM, lentiviral CCmut3 or 2.5 μM imatinib vs EV
Procedure: Primary cells were seeded in Methocult H4230 (Stem Cell Technologies) as described previously (Fleischman, A. G., et al. (2011). Blood 118, 6392-6398). Briefly, lentivirus-infected (GFP^+) cells were isolated by FACS and resuspended in RPMI1640. Cells were plated in Methocult H4230 at 1,000 cells/mL supplemented with 1× StemSpan CC100 cytokine mix (StemCell Technologies) with or without TKI as indicated in each experiment. Plates were incubated at 37° C. in a 5% CO2 humidified incubator for 14 days. Colony forming units of granulocyte-macrophage (CFU-GM) were counted on day 14 using an inverted microscope.
as §3

B1: CCmut3: modified Bcr-Abl coiled-coil domain (residues 1-72) with mutations C38A, K39E, S41R, L45D, E48R, Q60E (protein)
chain: MVDPVGFAEAWKAQFPDSEPPRMELRSVGDIEQELERAEARIRRDEQRVNQERFRMIYLETLLAKEKKSYDR
**Q.** B1 was tested. Which induction of apoptosis/necrosis [1] did it give?
**A.** not statistically different from the untreated control

**Q.** And the “colony formation, in words” value [2]?
**A.** significantly fewer colonies per unit area

**Q.** And the “colony formation, in words” value ([2]; listed as CC^mut3)?
**A.** Inhibition in colony formation

**Q.** What about the “reduction in CFCs / colony forming ability” value [2] of the same molecule?
**A.** > 10 fold

**Q.** What about the “reduction in CFCs / colony forming ability” value ([2]; listed as CC^mut3) of the same molecule?
**A.** more than 10 fold

**Q.** What about the “colony formation, in words” value [3] of the same molecule?
**A.** again reduced

**Q.** What about the “colony formation, in words” value ([3]; listed as CC^mut3) of the same molecule?
**A.** reduced; also recorded: Inhibition in colony formation

**Q.** And the “reduction of CFCs / colony forming ability compared to EV” value ([3]; CCmut3 vs EV)?
**A.** approximately 50%

**Q.** And the “intracellular colocalization with BCR-ABL (Costes' coefficient)” value [4]?
**A.** intracellular colocalization

**Q.** What about the “induction of apoptosis/necrosis (7-AAD and/or Annexin V positive cells)” value [5] of the same molecule?
**A.** did not induce apoptosis

**Q.** What about the “proliferation/viability of Ba/F3-p210 cells” value [6] of the same molecule?
**A.** replicated to a similar extent

**Q.** What about the “apoptosis, in words” value [7] of the same molecule?
**A.** no effect on parental Ba/F3 cells; also recorded: no effect on the parental cell line

**Q.** What about the “apoptosis, in words” value ([7]; listed as CC^mut3) of the same molecule?
**A.** not affected; also recorded: no effect on the parental cells

**Q.** What about the cell proliferation [8] of the same molecule?
**A.** ineffective at reducing cell proliferation and colony forming compared to untreated cells

**Q.** What about the “colony formation, in words” value [9] of the same molecule?
**A.** equally effective in reducing colony number

**Q.** What about the “colony formation, in words” value ([9]; listed as CC^mut3) of the same molecule?
**A.** reduced to similar degree

**Q.** What about the “inhibition of colony formation” value ([9]; four newly diagnosed patient samples, day 14, normalized to EV) of the same molecule?
**A.** ~60%

From patent US10494417B2, “Peptide inhibitors of BCR-ABL oligomerization” (University of Utah Research Foundation, priority 2014, dated 2019)
